In the supplement of paper PMC10724198:
± gives the standard deviation of the averaged measurements.

System: Saccharomyces cerevisiae
Test: protein stability index of tFT-peptide fusion (C-terminal peptide) (PSI (0-1 scale)); higher = more stable (slower turnover)
Settings: genetic background: wild type; temperature: 30 C
Description: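 Multiplexed protein stability (MPS) profiling in S. cerevisiae. Random 12-aa peptides (tFT-X12 library) are fused to the C-terminus of a sfGFP-mCherry tandem fluorescent timer, after mCherry and a GGGS linker. Cells are FACS-sorted into 8 mCherry/sfGFP bins and deep-sequenced. The protein stability index (PSI) is the read-weighted bin average, scaled from 0 (unstable) to 1 (stable). Only peptides with >10 reads are reported; cells were grown at 30 °C in SC-His with glucose.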
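Also: PSI is a weighted mean of sequencing reads over stability bins, variants kept only with over 10 reads, mCherry proximal and sfGFP distal, peptide attached via GGGS linker.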

Row | Sequence | protein stability index
1 | PPPSRPLLPFPP | 0.706 ± 0.012
2 | LPDPPEPHLRLP | 0.694 ± 0.025
3 | GCSNESVGVISG | 0.644 ± 0.024
4 | IENVETSLKVVG | 0.651 ± 0.0081
5 | PPALLAPAAPLP | 0.652 ± 0.07
6 | RRRSAFRLIKEK | 0.677 ± 0.045
7 | LKNGDINYARFG | 0.679 ± 0.083
8 | DVGFGWGGGVGG | 0.76 ± 0.014
9 | GWGGGGFRVVVG | 0.782 ± 0.049
10 | ELHEETEKSKYR | 0.74 ± 0.11
11 | EDRYIGITRYKD | 0.682 ± 0.11
12 | WFFPPLPPPLPR | 0.686 ± 0.04
13 | PPSPAFSSSLPP | 0.635 ± 0.025
14 | IVDYSRYVIGLE | 0.663 ± 0.0095
15 | RHGDRLEHPIPV | 0.611 ± 0.031
16 | IASLVSVCFLRD | 0.683 ± 0.029
17 | WGACSALRRLGY | 0.684 ± 0.044
18 | TKVCWNVDYNVL | 0.697 ± 0.012
19 | KENKKKNKKYKK | 0.785 ± 0.16
20 | SPSPPLPSRLIL | 0.673 ± 0.026
21 | GGVLGNGCGFGR | 0.784 ± 0.065
22 | PLHPQPAATPRS | 0.713 ± 0.023
23 | SSAPCLRIFVTR | 0.737 ± 0.062
24 | GKIGYQLGAVIN | 0.709 ± 0.068
25 | VWLSRLVFLSPL | 0.602 ± 0.0046

Row | Sequence | protein stability index
26 | VEASRSCTKLDG | 0.675 ± 0.02
27 | LPGPDLLSRMAS | 0.659 ± 0.019
28 | YFETNINKYLRM | 0.7107 ± 0.00072
29 | SPNAPMPPRPRH | 0.594 ± 0.033
30 | RRCDKTMSEGFF | 0.692 ± 0.078
31 | YVKHTVKVSGHK | 0.665 ± 0.0098
32 | GGGGGASMSGTP | 0.687 ± 0.017
33 | WGRGHPIYVCRV | 0.689 ± 0.013
34 | PLSPPLPLPLPL | 0.75 ± 0.037
35 | PLPIPHASPTLA | 0.641 ± 0.025
36 | LGGGCVRCVFMW | 0.637 ± 0.039
37 | VINKHYINKCQG | 0.638 ± 0.088
38 | KKRERNDKRGCQ | 0.652 ± 0.024
39 | ALRMVRHCPVNT | 0.667 ± 0.029
40 | RGNSPPPSSPPL | 0.687 ± 0.038
41 | SSLLPSPPPPLP | 0.677 ± 0.028
42 | AAQRGSTMARGG | 0.704 ± 0.064
43 | QKKNKNKIRTPN | 0.688 ± 0.012
44 | PPPPPPLSVPPL | 0.695 ± 0.077
45 | PPPPPPRPLAPS | 0.679 ± 0.029
46 | AGGGGGTRVHWR | 0.682 ± 0.013
47 | RPSTVPGHGSDT | 0.677 ± 0.011
48 | CLRRGGAGDGAS | 0.678 ± 0.011
49 | PRPNGLSTDDLE | 0.729 ± 0.056
50 | GAPTYTGEPRTP | 0.742 ± 0.032

Row | Sequence | protein stability index
51 | RLMKQKKMKRRK | 0.724 ± 0.025
52 | CTRRRLLVPRVK | 0.599 ± 0.028
53 | GRVSFFDYSRER | 0.704 ± 0.06
54 | GGVVSVYCEVSR | 0.625 ± 0.016
55 | DFPIEEILGLVG | 0.65 ± 0.05
56 | LLPRSSPTPLAH | 0.735 ± 0.066
57 | GFFFALGPPFSG | 0.695 ± 0.019
58 | KNTRIKKMKRRT | 0.827 ± 0.097
59 | TYATPSLVFPLL | 0.695 ± 0.011
60 | NRRGGTLLATLF | 0.659 ± 0.017
61 | ATPTQADRMPVT | 0.721 ± 0.1
62 | EWCGSLVVWTGG | 0.668 ± 0.018
63 | RLPHPPARVFSI | 0.691 ± 0.011
64 | PPLQFFLYRSWV | 0.664 ± 0.044
65 | GLNCGVCFGGGV | 0.701 ± 0.025
66 | PPPRPSPLSSSL | 0.678 ± 0.094
67 | CLPGVVRGLSTM | 0.703 ± 0.036
68 | AGWCWVWGVELV | 0.687 ± 0.04
69 | KQRENMCRCARE | 0.712 ± 0.074
70 | RRAHATLPMNEF | 0.616 ± 0.015
71 | AEWGGSTGGCWG | 0.722 ± 0.15
72 | SRTYAHSPPLPA | 0.699 ± 0.027
73 | QYWIYTGLKSLS | 0.598 ± 0.039
74 | FSEKLLRSSVYR | 0.639 ± 0.19
75 | LKQTNQHKVNTD | 0.643 ± 0.053

Row | Sequence | protein stability index
76 | YLPSTAHSAHPP | 0.737 ± 0.045
77 | LKKSYSTPFTHY | 0.69 ± 0.048
78 | KKARGYTLEQRR | 0.736 ± 0.051
79 | VCFLFGLVGFGS | 0.597 ± 0.0085
80 | VESDREPIFGCA | 0.65467 ± 0.00014
81 | LSCLFYSYSVSS | 0.607 ± 0.068
82 | PLSWVLFSFFHA | 0.697 ± 0.062
83 | AERSVRGTTPGG | 0.632 ± 0.051
84 | IGARESGGWSLC | 0.686 ± 0.023
85 | PSARASSRTAPS | 0.661 ± 0.015
86 | KDINNQKKETQR | 0.683 ± 0.047
87 | APSSLLTPPACI | 0.734 ± 0.083
88 | CRFLDVSSWILI | 0.707 ± 0.065
89 | YCPLSRTQSSAR | 0.859 ± 0.18
90 | KKKKTKKKTNSI | 0.727 ± 0.0076
91 | PPSPPRPHFPSL | 0.739 ± 0.042
92 | GRGSAGPARVST | 0.697 ± 0.024
93 | APPPPLLPHPTP | 0.736 ± 0.028
94 | LFSRSSHGRFLT | 0.624 ± 0.041
95 | PFPRGCCRLLSP | 0.707 ± 0.012
96 | GGTPIGAHVLLR | 0.661 ± 0.00077
97 | RCLRGGMLGFGR | 0.627 ± 0.052
98 | SPTSPAPPPNAS | 0.67 ± 0.0092
99 | IRSLSGPLSRTF | 0.673 ± 0.076
100 | PSLSDPLAPPQG | 0.757 ± 0.089

Row | Sequence | protein stability index
101 | PVPKAPPCNRRR | 0.663 ± 0.0099
102 | FSGGCSVHGLIS | 0.612 ± 0.071
103 | EDKVRGQGSRHN | 0.722 ± 0.011
104 | SFSLVATESPVT | 0.709 ± 0.052
105 | DAVRRNSAWFSF | 0.677 ± 0.025
106 | KMGTEEGRVWVG | 0.651 ± 0.054
107 | LRGDGGLFGDSG | 0.655 ± 0.035
108 | KRKREKKEKADA | 0.66 ± 0.043
109 | ISLRELNEVCRS | 0.668 ± 0.029
110 | SWLKRNLFPVAI | 0.596 ± 0.018
111 | CLPLPAPLLAHL | 0.666 ± 0.16
112 | PGNFLSVSMSIC | 0.649 ± 0.051
113 | GTCWAGAMGGVG | 0.675 ± 0.042
114 | SRGRTRLVAPIV | 0.66 ± 0.14
115 | CWGGGGLWLLEV | 0.515 ± 0.012
116 | QRGLERVVVGGI | 0.667 ± 0.016
117 | CGPLPLVRSLLP | 0.7031 ± 0.0023
118 | QKKNNKTTKKTK | 0.686 ± 0.012
119 | GPGYVFVGSGGW | 0.692 ± 0.027
120 | VEQSYKESVNLD | 0.682 ± 0.017
121 | VAAQRYAQRLFT | 0.652 ± 0.021
122 | TKWAISRLHNSA | 0.64 ± 0.012
123 | ASSPSPPTPPPP | 0.647 ± 0.056
124 | RLKKKKKEIKRR | 0.721 ± 0.011
125 | FPLSLCPHRPSL | 0.716 ± 0.034

Row | Sequence | protein stability index
126 | WVAFTRGGCGHC | 0.66 ± 0.017
127 | DNCIANLESGSL | 0.691 ± 0.008
128 | EVRLGKDKANRI | 0.691 ± 0.067
129 | LSVQVLSLRPRA | 0.688 ± 0.036
130 | RYGLSLLQASRR | 0.679 ± 0.081
131 | SPRPLFPPHRPT | 0.651 ± 0.044
132 | VGGRDWADSLVV | 0.772 ± 0.015
133 | WLRTGNVLQELL | 0.699 ± 0.03
134 | VCNFQIGGDRGV | 0.71 ± 0.052
135 | SPPPGPAPPMSP | 0.731 ± 0.03
136 | PSSSSWPPPRHP | 0.831 ± 0.18
137 | LPPPSFPSISLF | 0.675 ± 0.14
138 | VVIGCRRVLGCV | 0.583 ± 0.03
139 | GGGLVGVEGGWG | 0.6732 ± 0.0057
140 | WRPPPPYSPFSL | 0.74 ± 0.066
141 | PRGYSASPNLTS | 0.716 ± 0.023
142 | ALTGYYNQYRYE | 0.745 ± 0.025
143 | LQPPAPPSPQSD | 0.702 ± 0.081
144 | IPSSMWHICCLC | 0.538 ± 0.025
145 | AAPPPRRPCPPL | 0.678 ± 0.038
146 | SSCRKFLFAIRR | 0.685 ± 0.02
147 | ARPDTSPPGTSL | 0.664 ± 0.044
148 | DRMYDELFTKCC | 0.619 ± 0.031
149 | ISQNPYNGTGQE | 0.6886 ± 0.001
150 | GASPTNSPLIYT | 0.679 ± 0.0077

Row | Sequence | protein stability index
151 | LYGREPAGAEPT | 0.633 ± 0.022
152 | PSFLLPPLPPPT | 0.718 ± 0.0086
153 | EPNEKEKNKEVK | 0.704 ± 0.0079
154 | NSESVRLGLGNE | 0.705 ± 0.054
155 | RRWIFGEGMSTY | 0.723 ± 0.058
156 | PIFQGTCPSTFV | 0.675 ± 0.02
157 | GRRVKTVNSLGL | 0.709 ± 0.061
158 | FPFWRLYNLELL | 0.492 ± 0.022
159 | VSVRGREGLDWK | 0.698 ± 0.019
160 | RSIFLSRFVIGC | 0.682 ± 0.018
161 | GLLGFVLSKDST | 0.719 ± 0.052
162 | FGLPPGNWSSGH | 0.782 ± 0.028
163 | SLPPPAAPLPFP | 0.7346 ± 0.00096
164 | MVISTRARCMFF | 0.6727 ± 0.0059
165 | LLCLRGRVTLCP | 0.537 ± 0.031
166 | LFLLPPLLPLPP | 0.7361 ± 0.00058
167 | EPGLIPVAGTFF | 0.76 ± 0.011
168 | FNCCSYTSPASG | 0.649 ± 0.015
169 | QTPPPLPSPHPH | 0.635 ± 0.09
170 | LFFRVLDRLGEI | 0.726 ± 0.021
171 | SAFSSSLTALPP | 0.653 ± 0.022
172 | CTVGWNLVFQFG | 0.641 ± 0.08
173 | WTFEYRNHKMKK | 0.7149 ± 0.0071
174 | DVVGGCEKWWER | 0.734 ± 0.049
175 | VSGVVHRVVVSR | 0.7 ± 0.043

Row | Sequence | protein stability index
176 | SGLQPADMVFFR | 0.749 ± 0.056
177 | DPDPNHATGKIC | 0.616 ± 0.014
178 | GGGERFGLGGRM | 0.659 ± 0.049
179 | NRDSRTLGSTVG | 0.6744 ± 0.0011
180 | YTPDFPTIVSFI | 0.694 ± 0.14
181 | VAAFGGGRTNGV | 0.724 ± 0.024
182 | GKGGAEHADQVL | 0.669 ± 0.099
183 | RSPSTRHVGLSW | 0.6696 ± 0.00085
184 | PLRSLPRPLSST | 0.65913 ± 0.00011
185 | LTILEPYFLLGP | 0.732 ± 0.21
186 | RCTLSSFIYFCP | 0.601 ± 0.039
187 | VALEFLGWVGLS | 0.684 ± 0.094
188 | ISTSPRCCPRLL | 0.714 ± 0.023
189 | EGDQSRMTQPRG | 0.647 ± 0.034
190 | GGRGGGGEMGGR | 0.651 ± 0.04
191 | LGRFRLSRREGG | 0.6706 ± 0.0043
192 | RGFGPTPRSSGG | 0.707 ± 0.046
193 | CLVWGGCYWDVG | 0.6019 ± 0.0015
194 | GSRARKARQPHG | 0.582 ± 0.2
195 | LSLLFLSLSLLR | 0.61 ± 0.042
196 | FDVLGPRVVSWV | 0.633 ± 0.093
